Reference: publication PMC5462994
pKd: −log10 of the molar value.

Experiments:
[1] = target: Recombinant M.tb H37Rv GAPDH, wild type (Mycobacterium tuberculosis H37Rv) (UniProt P9WN83); test: ELISA; solid phase binding assay: 2 ug/well GAPDH coated on polystyrene wells in PBS pH 7.4; 7.5-1,000 nM biotinylated Lf in PBS with 1% fish skin gelatin, 25°C, 2 h; detected with anti-biotin; one-site specific binding fit
[2] = target: Transferrin (Homo sapiens) (UniProt P02787); conditions: cited from earlier work
Chain of UniProt P02787 (P02787 20-698): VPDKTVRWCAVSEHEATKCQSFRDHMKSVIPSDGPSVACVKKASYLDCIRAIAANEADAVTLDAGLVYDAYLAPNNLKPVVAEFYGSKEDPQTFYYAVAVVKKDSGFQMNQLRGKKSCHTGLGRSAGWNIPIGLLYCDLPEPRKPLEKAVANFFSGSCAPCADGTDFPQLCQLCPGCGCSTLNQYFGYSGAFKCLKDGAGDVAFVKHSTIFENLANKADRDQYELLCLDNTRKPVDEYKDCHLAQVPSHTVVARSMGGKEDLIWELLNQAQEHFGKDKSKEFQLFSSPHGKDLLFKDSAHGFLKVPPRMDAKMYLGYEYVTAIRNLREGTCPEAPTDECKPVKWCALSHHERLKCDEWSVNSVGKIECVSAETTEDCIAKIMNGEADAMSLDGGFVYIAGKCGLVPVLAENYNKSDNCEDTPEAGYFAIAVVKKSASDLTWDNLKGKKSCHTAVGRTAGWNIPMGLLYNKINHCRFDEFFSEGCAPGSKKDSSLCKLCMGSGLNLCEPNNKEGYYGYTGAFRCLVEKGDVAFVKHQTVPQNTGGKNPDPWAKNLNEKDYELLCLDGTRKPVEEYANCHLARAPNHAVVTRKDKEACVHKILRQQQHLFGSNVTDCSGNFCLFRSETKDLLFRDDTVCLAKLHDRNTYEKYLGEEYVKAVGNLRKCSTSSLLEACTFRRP

Chain of GAPDH (P9WN83 whole entry): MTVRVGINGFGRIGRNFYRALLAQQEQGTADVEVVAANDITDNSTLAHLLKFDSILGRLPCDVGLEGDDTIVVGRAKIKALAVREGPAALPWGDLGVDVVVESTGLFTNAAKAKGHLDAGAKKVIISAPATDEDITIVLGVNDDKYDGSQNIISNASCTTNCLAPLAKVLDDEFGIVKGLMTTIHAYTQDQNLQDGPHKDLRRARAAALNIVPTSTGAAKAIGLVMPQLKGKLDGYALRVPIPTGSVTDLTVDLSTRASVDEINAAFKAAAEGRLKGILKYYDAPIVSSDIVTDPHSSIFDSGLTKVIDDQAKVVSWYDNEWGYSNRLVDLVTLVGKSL

Substance “Biotinylated human lactoferrin (natural protein)” has a pKd [1] of 7.50.

In the case of GAPDH (from UniProt P9WN83), the pKd [2] is given as 6.80.
